Key:
Assay type in all cases: physicochemical
[1] = HPLC-assay for in-use stability after reconstitution with 4.2% sodium hydrogen carbonate solution (Example 2, peptides SEQ ID NO 1-10)
Method: Resolubilization procedure: For clinical trials the above described formulation is dissolved in 700 μl sodium hydrogen carbonate (4.2%). Remove plastic cap from one vial. Unpack and remove sodium hydrogen carbonate (4.2%) from the refrigerator at least 30 min before resolubilization to bring them up to room temperature before injection. Prepare syringe and needle for reconstitution. Use aseptic technique to take 700 μL of diluent for reconstitution of the lyophilisate. To dissolve the lyophilisate, the vial and the diluent shall be shaken vigorously for 1 minute, check whether solution is clear, otherwise continue shaking for another minute until the solution is clear. 10 to 30 minutes after GM-CSF injection, use a new syringe to administer 500 μL reconstituted formulation i.d. at the same site. Administration has to occur within 1 h after reconstitution. Dissolved lyophilisate may be stored aseptically at room temperature for up to 1 hour following reconstitution.
However, a decrease of two specific peptides, i.e. IMA-CCN-001 and IMA-RGS-001 took place (see Table 6). As these peptides contain a cysteine residue, time-depending dimerization takes place.
(§1) Identity, purity and peptide content are determined by analytical RP-HPLC chromatography. Detection wavelength was 220 nm.

[2] = HPLC-assay for in-use stability after reconstitution with 4.2% sodium hydrogen carbonate solution (Example 3, peptides SEQ ID NO 11-23)
Method: For clinical trials the above described formulation is dissolved in 700 μl sodium hydrogen carbonate (4.2%). To dissolve the lyophilisate, the vial and the diluent shall be shaken vigorously for 1 minute, check whether solution is clear, otherwise continue shaking for another minute until the solution is clear. Administration of 500 μL of the solution has to occur within 1 h after reconstitution. Dissolved lyophilisate may be stored aseptically at room temperature for up to 1 hour following reconstitution.
as §1

[3] = HPLC-assay for stability of peptides in lyophilised formulation on storage for 3 months (Example 4); conditions: for stability of peptides in formulation, 1 M: 1 month; for stability of peptides in formulation, 2 M: 2 months; for stability of peptides in formulation, 3 M: 3 months
Method: as §1

[4] = +mannitol/lutrol, 1 h after reconstitution
[5] = +mannitol/lutrol, 2 h after reconstitution
[6] = +mannitol/lutrol, 3 h after reconstitution
[7] = +mannitol/lutrol, 4 h after reconstitution
[8] = +mannitol/lutrol, 5 h after reconstitution
[9] = +mannitol/lutrol, 6 h after reconstitution
[10] = +mannitol/lutrol, Initial (starting value set to 100%)
[11] = no excipients, 1 h after reconstitution
[12] = no excipients, 2 h after reconstitution
[13] = no excipients, 3 h after reconstitution
[14] = no excipients, Initial (starting value set to 100%)

Row | Sequence | in-use stability, peptide by HPLC-assay [1, 4] | in-use stability, peptide by HPLC-assay [1, 5] | in-use stability, peptide by HPLC-assay [1, 6] | in-use stability, peptide by HPLC-assay [1, 7] | in-use stability, peptide by HPLC-assay [1, 8] | in-use stability, peptide by HPLC-assay [1, 9] | in-use stability, peptide by HPLC-assay [1, 10] | in-use stability, peptide by HPLC-assay [1, 11] | in-use stability, peptide by HPLC-assay [1, 12] | in-use stability, peptide by HPLC-assay [1, 13] | in-use stability, peptide by HPLC-assay [1, 14] | in-use stability, Peptide [%] ([2]; +Mannitol/Lutrol, 2h) | in-use stability, Peptide [%] ([2]; +Mannitol/Lutrol, 4h) | in-use stability, Peptide [%] ([2]; +Mannitol/Lutrol, 6h) | in-use stability, Peptide [%] ([2]; +Mannitol/Lutrol, Initial) | in-use stability, Peptide [%] ([2]; no excipients, 2h) | in-use stability, Peptide [%] ([2]; no excipients, 4h) | in-use stability, Peptide [%] ([2]; no excipients, 6h) | in-use stability, Peptide [%] ([2]; no excipients, Initial) | stability of peptides in formulation, 1 M ([3]; +5° C. +/- 3° C.) | further results
1 | VMAGDIYSV (listed as Homo sapiens) [ADF-002, Adipophilin tumour-associated peptide] | 99.9% | 100.0% | 101.1% | 101.2% | 99.9% | 101.9% | 100.0% | 100.9% | 100.0% | 97.2% | 100.0% |  |  |  |  |  |  |  |  |  | 
2 | GLWHHQTEV (listed as Homo sapiens) [NRCAM-001, Neuronal cell adhesion molecule peptide] |  |  |  |  |  |  |  |  |  |  |  | 99.9% | 100.0% | 99.5% | 100.0% | 99.8% | 100.2% | 95.6% | 100.0% | 99.13 % of Initial | stability of peptides in formulation, 2 M ([3]; +5° C. +/- 3° C.): 98.17 % of Initial; stability of peptides in formulation, 3 M ([3]; +5° C. +/- 3° C.): 98.79 % of Initial; stability of peptides in formulation, INITIAL ([3]; +5° C. +/- 3° C.): 100.0%; stability of peptides in formulation, 1 M ([3]; +25° C. +/- 2° C.): 97.90 % of Initial; stability of peptides in formulation, 2 M ([3]; +25° C. +/- 2° C.): 96.73 % of Initial; stability of peptides in formulation, 3 M ([3]; +25° C. +/- 2° C.): 97.59 % of Initial; stability of peptides in formulation, INITIAL ([3]; +25° C. +/- 2° C.): 100.0%; stability of peptides in formulation, 1 M ([3]; -20° C. +/- 5° C.): 99.23 % of Initial; stability of peptides in formulation, 2 M ([3]; -20° C. +/- 5° C.): 97.86 % of Initial; stability of peptides in formulation, 3 M ([3]; -20° C. +/- 5° C.): 98.91 % of Initial; stability of peptides in formulation, INITIAL ([3]; -20° C. +/- 5° C.): 100.0%
3 | TLGEFLKLDRERAKN (listed as Homo sapiens) [BIR-002, Baculoviral IAP repeat-containing 5 (survivin) peptide] |  |  |  |  |  |  |  |  |  |  |  | 100.8% | 101.2% | 100.9% | 100.0% | 100.6% | 101.4% | 96.2% | 100.0% | 98.53 % of Initial | stability of peptides in formulation, 2 M ([3]; +5° C. +/- 3° C.): 97.28 % of Initial; stability of peptides in formulation, 3 M ([3]; +5° C. +/- 3° C.): 100.01 % of Initial; stability of peptides in formulation, INITIAL ([3]; +5° C. +/- 3° C.): 100.0%; stability of peptides in formulation, 1 M ([3]; +25° C. +/- 2° C.): 97.49 % of Initial; stability of peptides in formulation, 2 M ([3]; +25° C. +/- 2° C.): 96.24 % of Initial; stability of peptides in formulation, 3 M ([3]; +25° C. +/- 2° C.): 98.93 % of Initial; stability of peptides in formulation, INITIAL ([3]; +25° C. +/- 2° C.): 100.0%; stability of peptides in formulation, 1 M ([3]; -20° C. +/- 5° C.): 98.43 % of Initial; stability of peptides in formulation, 2 M ([3]; -20° C. +/- 5° C.): 96.98 % of Initial; stability of peptides in formulation, 3 M ([3]; -20° C. +/- 5° C.): 100.14 % of Initial; stability of peptides in formulation, INITIAL ([3]; -20° C. +/- 5° C.): 100.0%
4 | NLDTLMTYV (listed as Homo sapiens) [NLGN4X-001, Neuroligin 4, X-linked peptide] |  |  |  |  |  |  |  |  |  |  |  | 100.8% | 100.9% | 100.5% | 100.0% | 99.9% | 100.5% | 95.7% | 100.0% | 99.12 % of Initial | stability of peptides in formulation, 2 M ([3]; +5° C. +/- 3° C.): 98.24 % of Initial; stability of peptides in formulation, 3 M ([3]; +5° C. +/- 3° C.): 98.84 % of Initial; stability of peptides in formulation, INITIAL ([3]; +5° C. +/- 3° C.): 100.0%; stability of peptides in formulation, 1 M ([3]; +25° C. +/- 2° C.): 97.90 % of Initial; stability of peptides in formulation, 2 M ([3]; +25° C. +/- 2° C.): 96.30 % of Initial; stability of peptides in formulation, 3 M ([3]; +25° C. +/- 2° C.): 96.41 % of Initial; stability of peptides in formulation, INITIAL ([3]; +25° C. +/- 2° C.): 100.0%; stability of peptides in formulation, 1 M ([3]; -20° C. +/- 5° C.): 99.05 % of Initial; stability of peptides in formulation, 2 M ([3]; -20° C. +/- 5° C.): 97.60 % of Initial; stability of peptides in formulation, 3 M ([3]; -20° C. +/- 5° C.): 98.62 % of Initial; stability of peptides in formulation, INITIAL ([3]; -20° C. +/- 5° C.): 100.0%
5 | LLGATCMFV (listed as Homo sapiens) [CCN-001, Cyclin D1 tumour-associated peptide] | 95.6% | 92.2% | 91.3% | 89.2% | 86.1% | 85.9% | 100.0% | 82.8% | 72.1% | 63.3% | 100.0% |  |  |  |  |  |  |  |  |  | stability after reconstitution (in words) ([1]; Example 2 formulation, 4.2% sodium hydrogen carbonate): decrease
6 | ALFDGDPHL (listed as Homo sapiens) [K67-001, KIAA0367 tumour-associated peptide] | 99.8% | 100.4% | 101.6% | 101.8% | 100.6% | 102.5% | 100.0% | 100.8% | 99.2% | 97.5% | 100.0% |  |  |  |  |  |  |  |  |  | 
7 | ALADGVQKV (listed as Homo sapiens) [APO-001, Apolipoprotein L1 tumour-associated peptide] | 99.8% | 99.8% | 100.7% | 100.9% | 99.6% | 101.5% | 100.0% | 100.0% | 97.4% | 97.4% | 100.0% |  |  |  |  |  |  |  |  |  | 
8 | SQDDIKGIQKLYGKRS (listed as Homo sapiens) [MMP-001, Matrix metalloproteinase 7 tumour-associated peptide] | 99.5% | 99.3% | 100.2% | 100.4% | 98.9% | 100.9% | 100.0% | 98.6% | 97.1% | 95.7% | 100.0% |  |  |  |  |  |  |  |  |  | 
9 | YVDPVITSI (listed as Homo sapiens) [MET-001, c-met proto-oncogene tumour-associated peptide] | 99.8% | 99.8% | 101.0% | 101.1% | 99.8% | 101.7% | 100.0% | 100.0% | 99.2% | 96.7% | 100.0% |  |  |  |  |  |  |  |  |  | 
10 | SVFAGVVGV (listed as Homo sapiens) [GUC-001, GUCY1A3 tumour-associated peptide] | 99.7% | 99.5% | 100.6% | 100.8% | 99.7% | 101.6% | 100.0% | 100.0% | 100.0% | 98.6% | 100.0% |  |  |  |  |  |  |  |  |  | 

From patent US9289478B2, “Formulations of tumour-associated peptides binding to human leukocyte antigen (HLA) class I or class II molecules for vaccine” (IMMATICS BIOTECHNOLOGIES GMBH, priority 2008, dated 2016)
